{
  "source": "patent US20120114557A1",
  "key": {"[1]": {"target": "rat collagen type I (rat) (UniProt P02454)", "sequence (P02454 152-1207, chain 1 of 2)": "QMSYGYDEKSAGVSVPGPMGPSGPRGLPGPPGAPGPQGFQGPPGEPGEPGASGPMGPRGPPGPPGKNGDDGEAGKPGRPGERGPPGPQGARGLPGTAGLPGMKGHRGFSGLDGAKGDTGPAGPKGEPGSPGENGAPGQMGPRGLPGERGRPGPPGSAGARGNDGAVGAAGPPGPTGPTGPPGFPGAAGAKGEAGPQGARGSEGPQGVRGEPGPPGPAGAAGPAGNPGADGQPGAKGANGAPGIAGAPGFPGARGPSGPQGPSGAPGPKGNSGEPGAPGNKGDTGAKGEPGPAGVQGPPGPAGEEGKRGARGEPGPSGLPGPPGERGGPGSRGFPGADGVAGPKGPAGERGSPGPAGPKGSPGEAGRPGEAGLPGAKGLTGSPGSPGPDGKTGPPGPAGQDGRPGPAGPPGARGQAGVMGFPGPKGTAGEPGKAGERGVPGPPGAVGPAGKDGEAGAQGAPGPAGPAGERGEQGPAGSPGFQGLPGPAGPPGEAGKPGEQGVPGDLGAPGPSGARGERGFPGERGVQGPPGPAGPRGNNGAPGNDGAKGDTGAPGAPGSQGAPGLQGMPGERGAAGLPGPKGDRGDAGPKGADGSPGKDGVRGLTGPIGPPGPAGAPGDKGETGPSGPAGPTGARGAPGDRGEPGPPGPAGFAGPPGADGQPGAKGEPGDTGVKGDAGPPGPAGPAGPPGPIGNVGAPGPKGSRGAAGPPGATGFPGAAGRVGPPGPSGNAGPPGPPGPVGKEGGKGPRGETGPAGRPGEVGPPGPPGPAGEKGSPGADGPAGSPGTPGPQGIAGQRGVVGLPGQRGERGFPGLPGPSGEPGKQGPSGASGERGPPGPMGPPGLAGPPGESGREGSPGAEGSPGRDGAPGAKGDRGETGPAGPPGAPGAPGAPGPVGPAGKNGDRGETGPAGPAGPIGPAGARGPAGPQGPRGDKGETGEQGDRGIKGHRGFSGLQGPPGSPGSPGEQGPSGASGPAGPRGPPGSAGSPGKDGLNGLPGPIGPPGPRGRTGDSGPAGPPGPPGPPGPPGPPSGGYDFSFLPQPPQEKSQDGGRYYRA", "sequence (P02466 86-1125, chain 2 of 2, further chain)": "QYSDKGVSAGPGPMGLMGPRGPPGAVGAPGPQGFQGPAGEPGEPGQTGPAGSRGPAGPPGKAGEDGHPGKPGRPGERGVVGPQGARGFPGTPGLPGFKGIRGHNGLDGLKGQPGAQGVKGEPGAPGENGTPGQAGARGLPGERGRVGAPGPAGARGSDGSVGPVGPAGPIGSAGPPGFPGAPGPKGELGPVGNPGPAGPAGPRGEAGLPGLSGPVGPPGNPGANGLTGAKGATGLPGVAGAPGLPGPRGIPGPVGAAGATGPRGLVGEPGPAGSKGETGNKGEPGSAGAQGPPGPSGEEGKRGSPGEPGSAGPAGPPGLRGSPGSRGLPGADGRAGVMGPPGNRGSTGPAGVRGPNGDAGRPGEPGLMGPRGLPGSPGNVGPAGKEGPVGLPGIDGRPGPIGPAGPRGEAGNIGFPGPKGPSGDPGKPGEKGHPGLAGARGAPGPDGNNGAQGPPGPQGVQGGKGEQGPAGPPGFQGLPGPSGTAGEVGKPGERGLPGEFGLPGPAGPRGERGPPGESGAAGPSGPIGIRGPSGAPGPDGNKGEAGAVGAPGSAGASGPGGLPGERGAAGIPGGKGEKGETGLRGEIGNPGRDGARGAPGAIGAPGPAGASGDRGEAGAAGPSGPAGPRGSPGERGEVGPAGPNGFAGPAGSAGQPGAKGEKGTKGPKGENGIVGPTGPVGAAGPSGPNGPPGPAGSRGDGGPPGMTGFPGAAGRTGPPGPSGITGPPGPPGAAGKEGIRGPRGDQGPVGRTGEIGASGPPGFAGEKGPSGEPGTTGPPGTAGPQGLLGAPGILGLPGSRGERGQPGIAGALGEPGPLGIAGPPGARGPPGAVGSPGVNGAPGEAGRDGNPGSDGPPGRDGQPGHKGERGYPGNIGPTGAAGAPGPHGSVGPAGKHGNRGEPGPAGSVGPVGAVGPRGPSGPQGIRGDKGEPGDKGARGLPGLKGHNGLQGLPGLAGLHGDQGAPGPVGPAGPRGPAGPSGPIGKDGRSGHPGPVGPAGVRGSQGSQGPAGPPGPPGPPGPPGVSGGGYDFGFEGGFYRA", "experiment": "dried collagen assay, chelate conjugate"}, "[2]": {"target": "human collagen type I (human) (UniProt P02452)", "sequence (P02452 162-1218 limits assumed, chain 1 of 2)": "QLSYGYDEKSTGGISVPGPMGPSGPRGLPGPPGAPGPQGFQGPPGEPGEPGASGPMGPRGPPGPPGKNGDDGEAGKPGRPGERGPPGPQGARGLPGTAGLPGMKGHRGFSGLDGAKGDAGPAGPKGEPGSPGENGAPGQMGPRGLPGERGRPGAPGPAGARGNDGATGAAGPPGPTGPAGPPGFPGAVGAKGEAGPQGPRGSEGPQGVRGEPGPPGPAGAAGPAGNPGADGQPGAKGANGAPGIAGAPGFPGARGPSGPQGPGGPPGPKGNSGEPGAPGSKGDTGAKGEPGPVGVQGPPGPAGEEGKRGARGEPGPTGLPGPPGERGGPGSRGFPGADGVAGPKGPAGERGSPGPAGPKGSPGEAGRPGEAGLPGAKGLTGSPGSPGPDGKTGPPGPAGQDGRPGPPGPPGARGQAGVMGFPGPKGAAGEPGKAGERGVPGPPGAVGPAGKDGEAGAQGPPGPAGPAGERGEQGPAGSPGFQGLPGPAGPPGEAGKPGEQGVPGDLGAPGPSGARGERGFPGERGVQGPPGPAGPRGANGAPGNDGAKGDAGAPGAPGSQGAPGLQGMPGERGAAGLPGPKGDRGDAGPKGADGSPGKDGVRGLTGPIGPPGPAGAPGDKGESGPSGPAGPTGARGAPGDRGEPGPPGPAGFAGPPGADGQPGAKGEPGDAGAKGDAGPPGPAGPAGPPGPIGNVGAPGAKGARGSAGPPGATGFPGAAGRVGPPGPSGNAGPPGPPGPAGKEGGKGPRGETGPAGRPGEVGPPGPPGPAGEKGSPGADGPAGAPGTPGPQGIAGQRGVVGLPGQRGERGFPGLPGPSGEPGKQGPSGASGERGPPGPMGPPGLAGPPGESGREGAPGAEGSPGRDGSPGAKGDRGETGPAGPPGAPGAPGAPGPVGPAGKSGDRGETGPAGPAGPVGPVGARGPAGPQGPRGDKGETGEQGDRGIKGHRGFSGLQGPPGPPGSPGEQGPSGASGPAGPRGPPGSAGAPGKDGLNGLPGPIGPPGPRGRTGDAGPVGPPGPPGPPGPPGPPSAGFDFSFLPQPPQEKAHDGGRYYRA", "sequence (P08123 80-1119 limits assumed, chain 2 of 2, further chain)": "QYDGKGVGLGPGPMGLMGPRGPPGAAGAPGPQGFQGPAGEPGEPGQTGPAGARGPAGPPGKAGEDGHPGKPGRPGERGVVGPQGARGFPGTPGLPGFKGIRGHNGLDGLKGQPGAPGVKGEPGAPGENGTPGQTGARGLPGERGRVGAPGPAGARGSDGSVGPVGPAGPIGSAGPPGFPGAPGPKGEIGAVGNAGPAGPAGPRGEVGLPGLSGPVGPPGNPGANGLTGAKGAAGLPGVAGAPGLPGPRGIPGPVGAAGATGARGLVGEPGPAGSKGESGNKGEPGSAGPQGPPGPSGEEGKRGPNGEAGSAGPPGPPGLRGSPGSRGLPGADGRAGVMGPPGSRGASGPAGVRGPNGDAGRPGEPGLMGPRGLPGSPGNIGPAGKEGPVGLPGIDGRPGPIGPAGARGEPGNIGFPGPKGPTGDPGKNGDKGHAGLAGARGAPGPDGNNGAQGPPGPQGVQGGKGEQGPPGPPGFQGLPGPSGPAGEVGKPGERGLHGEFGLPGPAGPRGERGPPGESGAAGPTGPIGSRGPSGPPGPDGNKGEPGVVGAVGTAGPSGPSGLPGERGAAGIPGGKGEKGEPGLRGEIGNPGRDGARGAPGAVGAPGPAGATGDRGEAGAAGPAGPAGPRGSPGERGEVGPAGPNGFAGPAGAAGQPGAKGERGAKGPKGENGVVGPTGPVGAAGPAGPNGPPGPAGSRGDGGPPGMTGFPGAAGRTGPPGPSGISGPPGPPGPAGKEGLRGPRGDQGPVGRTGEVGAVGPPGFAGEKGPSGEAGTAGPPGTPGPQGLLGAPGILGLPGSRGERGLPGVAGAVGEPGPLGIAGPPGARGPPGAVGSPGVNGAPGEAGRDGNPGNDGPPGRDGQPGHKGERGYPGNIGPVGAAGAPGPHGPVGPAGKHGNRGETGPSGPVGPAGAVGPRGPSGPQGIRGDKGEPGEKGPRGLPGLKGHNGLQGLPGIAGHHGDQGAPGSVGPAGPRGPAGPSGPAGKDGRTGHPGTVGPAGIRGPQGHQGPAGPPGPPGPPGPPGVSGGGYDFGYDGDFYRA", "experiment": "dried collagen assay, chelate conjugate"}},
  "data": [
    {"substance": "Glu-DTPA-Gd-PEG(20)-G-Q-W-T-C-S-G-D-E-Y-T-W-H-C-N-Y-e (peptide)", "values": [
      {"measurement": "% Binding Collagen I, Rat", "setting": "[1]", "result": 5, "unit": "%"},
      {"measurement": "% Binding Collagen I, Human", "setting": "[2]", "result": 28, "unit": "%"}
    ]}
  ]
}
